From US20240384250A1, “FIBROBLAST GROWTH FACTOR 23 MODULATING COMPOUNDS” (THE UAB RESEARCH FOUNDATION, priority 2021, published 2024)
Values belong to the molecule of their own block, whether it stands above or below them.

Tests used:
[1] = tested on: phosphorylated ERK in HEK293T cells; assay: ERK phosphorylation in serum-starved HEK293 cells (Western blotting); type: cell-based, human; conditions: FGF 1.1 nM for 10 minutes, absence of sKL
Procedure: The sample (20 μl) was loaded onto Mini-PROTEAN TGX Precast Gel 4-20% for experiments with <9 samples (4568094, Bio-Rad) or Criterion TGX Precast Gel 4-20% (5678094, Bio-Rad) for experiments with >9 samples. Gels were run in 1× Tris/Glycine/SDS buffer (1610732, Bio-Rad) at 150 V and stopped when the sample dye reached the end of the gel. Gels were removed and electrotransferred via a semi-dry cassette (1703940, Bio-Rad) in I× Tris/Glycine buffer (1610734, Bio-Rad) with 20% methanol. Gels were transferred onto polyvinylidene diflouride membranes (IPVH00010, Millipore) at 20 V for 1 hour. Membranes were then blocked in 5% dried milk with 0.5% Tween 20 diluted in Tris-buffered saline (TBST; pH 7.5) for 1 hour and probed with antibodies against specific antigens at 1:1000 in TBST with 5% dried milk. Blots were washed 3× for 5 minutes in TBST and probed with HRP-coupled secondary antibodies against specific species at 1:10,000 in TBST with 5% dried milk. Membranes were imaged on the SRX-101A X-ray film developer (Konica Minolta).
To determine the cellular activity of paracrine FGFs, the activation/phosphorylation of ERK in HEK293 cells after treatment was studied. HEK293 cells were seeded in 6-well plates in DMEM (26140079, Gibco) supplemented with I× Pen/Strep (15140122, Gibco) and 10% FBS (26140079, Gibco) and grown for 48 hours. Upon reaching 80% confluence, cells were serum starved overnight in DMEM and 1× Pen/Strep without FBS. The medium was changed, and cells were treated with sKL at 2 μg/ml or vehicle (sKL elution buffer: 25 mM Tris ph 8.0, 500 mM NaCl) for 15 minutes. Cells were then treated with various FGFs at 1.1 nM for 10 minutes. Cells were lysed in 200 μl of RIPA with the addition of a protease inhibitor (11836153001, Roche) and phosphatase inhibitors (P5726 and P0044, Sigma-Aldrich) for 30 minutes. The mixture was then centrifuged at 20,000 g for 60 minutes to remove all cell debris. One hundred microliters of 1× Laemmli sample buffer (1610737, Bio-Rad) with 1.42 M 2-mercaptoethanol was added, and samples were boiled for 5 minutes. Twenty microliters of samples was loaded onto 12% SDS-PAGE gels and analyzed using Western blotting for total and phosphorylated ERK.

[2] = biological target: T1, FGFR1c (Homo sapiens, UniProt P11362); assay: Plate-based binding assay, FGFR1c coated, FLAG-sKL detected with anti-FLAG HRP; conditions: purified protein
T1 construct: Fc-coupled FGFR ectodomains were immobilized on protein A/G beads; purchased R&D Systems 658FR050
T1 sequence (P11362 22-376 limits assumed): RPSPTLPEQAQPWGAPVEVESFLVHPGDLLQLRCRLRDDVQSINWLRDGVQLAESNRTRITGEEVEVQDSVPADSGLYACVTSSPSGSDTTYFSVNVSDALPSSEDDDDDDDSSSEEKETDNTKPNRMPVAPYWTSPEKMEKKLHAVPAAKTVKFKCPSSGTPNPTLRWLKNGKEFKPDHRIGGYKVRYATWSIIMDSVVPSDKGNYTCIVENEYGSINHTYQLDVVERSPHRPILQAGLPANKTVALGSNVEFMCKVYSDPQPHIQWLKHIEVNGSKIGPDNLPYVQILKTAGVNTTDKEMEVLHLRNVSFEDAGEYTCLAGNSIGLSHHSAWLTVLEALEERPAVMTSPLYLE
Procedure: (§1) Proteins were coated on 96-well plates (MaxiSorp; 439454, Thermo Fisher Scientific), and proteins were added to wells in 100 μl of enzyme-linked immunosorbent assay (ELISA) coating buffer (E107, Bethyl Laboratories) with a lid placed overtop and incubated at 4° C. overnight. Plates were washed 5× with 350 μl of assay buffer (50 mM Tris [pH 7.4], 200 mM NaCl, 0.01% Tween 20) on a 50 TS microplate washer (BioTek). Plates were blocked for 1 hour in 200 μl of assay buffer with 0.5% BSA. Plates were washed as before, and proteins were incubated on plates in 100 μl of assay buffer with 0.5% BSA. Proteins or heparin was incubated in orders described in the respective figure legends. Assays using FLAG-tag-based detection were incubated with anti-FLAG coupled to HRP at 1:20,000, and assays using Fc detection were incubated with anti-human Fc coupled to HRP at 1:10,000. Plates were washed as above, and 100 μl of 3,3′,5,5′-tetramethylbenzidine (TMB) substrate (E102, Bethyl Laboratories) was added for 15 to 20 minutes until positive wells developed a dark blue color. Reactions were stopped with ELISA stop solution (E115, Bethyl Laboratories) and analyzed using the Synergy HI plate reader (BioTek) at 450 nm wavelength. […] As a control to remove background absorbance values, wells were coated with an equal amount of BSA to match the amount of protein coated in experimental wells and treated the same as experimental wells. To study the effects of sKL on the binding between paracrine FGFs and FGFRs, plates were run as above except coated with paracrine FGFs. Fc-FGFR1 was preincubated with sKL or vehicle for 60 minutes, and then the combination was added to wells and the assay was run as before.

[3] = biological target: T2, FGF23 (Homo sapiens, UniProt Q9GZV9); assay: Plate-based binding assay, FGF23 coated, FLAG-sKL detected with anti-FLAG HRP; conditions: 100 ng FGF23 coated
T2 construct: purchased R&D Systems 2604FG025/CF (human) or 2629FG025/CF (mouse)
T2 sequence (Q9GZV9 25-251): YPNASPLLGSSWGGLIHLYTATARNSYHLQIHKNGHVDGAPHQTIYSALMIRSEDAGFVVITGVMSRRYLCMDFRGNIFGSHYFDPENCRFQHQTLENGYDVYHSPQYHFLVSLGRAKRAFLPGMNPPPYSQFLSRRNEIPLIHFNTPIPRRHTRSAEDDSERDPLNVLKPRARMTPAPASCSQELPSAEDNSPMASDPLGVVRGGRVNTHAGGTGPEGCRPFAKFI
Procedure: as §1

B1: FGF8b: recombinant human FGF8b from R&D Systems (protein)
chain: QVTVQSSPNFTQHVREQSLVTDQLSRRLIRTYQLYSRTSGKHVQVLANKRINAMAEDGDPFAKLIVETDTFGSRVRVRGAETGLYICMNKKGKLIAKSNGKGKDCVFTEIVLENNYTALQNAKYEGWYMAFTRKGRPRKGSKTRQHQREVHFMKRLPRGHHTTEQSLRFEFLNYPPFTRSLRGSQRTWAPEPR
ERK phosphorylation induced by FGF [1]: induced ERK phosphorylation

B2: FGF5: recombinant human FGF5 from R&D Systems (protein)
chain: EKRLAPKGQPGPAATDRNPRGSSSRQSSSSAMSSSSASSSPAASLGSQGSGLEQSSFQWSPSGRRTGSLYCRVGIGFHLQIYPDGKVNGSHEANMLSVLEIFAVSQGIVGIRGVFSNKFLAMSKKGKLHASAKFTDDCKFRERFQENSYNTYASAIHRTEKTGREWYVALNKRGKAKRGCSPRVKPQHISTHFLPRFKQSEQPELSFTVTVPEKKKPPSPIKPKIPLSAPRKNTNSVKYRLKFRFG
ERK phosphorylation induced by FGF [1]: induced ERK phosphorylation

binding affinity for FGFR1c compared with wildtype sKL [2]: does not affect | FGF23 binding of sKL variants in HEK293 cell media compared with wildtype sKL [3]: increased FGF23 binding
B3: sKL-N694Q: sKL variant with glycosylation site Asn694 substituted by Gln (protein)
chain: EPGDGAQTWARFSRPPAPEAAGLFQGTFPDGFLWAVGSAAYQTEGGWQQHGKGASIWDTFTHHPLAPPGDSRNASLPLGAPSPLQPATGDVASDSYNNVFRDTEALRELGVTHYRFSISWARVLPNGSAGVPNREGLRYYRRLLERLRELGVQPVVTLYHWDLPQRLQDAYGGWANRALADHFRDYAELCFRHFGGQVKYWITIDNPYVVAWHGYATGRLAPGIRGSPRLGYLVAHNLLLAHAKVWHLYNTSFRPTQGGQVSIALSSHWINPRRMTDHSIKECQKSLDFVLGWFAKPVFIDGDYPESMKNNLSSILPDFTESEKKFIKGTADFFALCFGPTLSFQLLDPHMKFRQLESPNLRQLLSWIDLEFNHPQIFIVENGWFVSGTTKRDDAKYMYYLKKFIMETLKAIKLDGVDVIGYTAWSLMDGFEWHRGYSIRRGLFYVDFLSQDKMLLPKSSALFYQKLIEKNGFPPLPENQPLEGTFPCDFAWGVVDNYIQVDTTLSQFTDLNVYLWDVHHSKRLIKVDGVVTKKRKSYCVDFAAIQPQIALLQEMHVTHFRFSLDWALILPLGNQSQVNHTILQYYRCMASELVRVNITPVVALWQPMAPNQGLPRLLARQGAWENPYTALAFAEYARLCFQELGHHVKLWITMNEPYTRQMTYSAGHNLLKAHALAWHVYNEKFRHAQNGKISIALQADWIEPACPFSQKDKEVAERVLEFDIGWLAEPIFGSGDYPWVMRDWLNQRNNFLLPYFTEDEKKLIQGTFDFLALSHYTTILVDSEKEDPIKYNDYLEVQEMTDITWLNSPSQVAVVPWGLRKVLNWLKFKYGDLPMYIISNGIDDGLHAEDDQLRVYYMQNYINEALKAHILDGINLCGYFAYSFNDRTAPRFGLYRYAADQFEPKASMKHYRKIIDSNGFPGPETLERFCPEEFTVCTECSFFHTRKS
modifications: left off: small tags and cut ends
notes: sKL variant with glycosylation site Asn694 substituted by Gln
